The DeepSol protein solubility set

test: soluble on expression in E. coli; label from the status in PepcDB or PDB records

Soluble on expression in E. coli, not soluble:
MGSDKIHHHHHHMKELVNILDFLPEELGEKIKPMFRVKQIYQWIYQKYANNFSDMSSLPKDLRLELARNFHFSPVKCVKNEQSKDGSIKYLFELIDGLRVESVLLPMKEEKIDAEGKRISHARYTICVSSQVGCKSGCSFCLTAKGGLKRNLSAGEIVGQILWIKKQNNIPYERRVNIVYMGMGEPLDNLKNVSKAVKILAQNEGLAISPRRQTISTSGLAKQIKELGQMNLGVLLAISLHAVNDELRTELMPINKAYNIAAIMDAVREFPIDQRKRVMFEYLLIDGINDKLEHAKELVKLLNGIKAKVNLILFNPHEGSLYKRPSLENAIKFQDLLSNKGVTCTIRESKGLDISAACGQLKERAKEQ
MGSDKIHHHHHHMKENIEKLFQAIAQKNPIHSKYLKKIEFSQEDEEEFDKLISYYIQDGISIKEQCDCYLLILNDTLEETKFFIENGAYRYSSFDEVKDKVYFNESYMKQYMIGLALSSFVWIAHIKVRKYFSQYLQNFTPKTTYFEIGPGHGEYFARAVKSGKFSAFYGLDISPTSCELTQKMVKQQVGGLITKCDFLCQDFFTYDFDKKADLIVIGEVLEHVEKPLEFLKRSKELLSDGGEIFATIPINAPAIDHIYLFSHPDEVKDLIEKSGLKFKAYECFMANDYSLEKALKFKNAITMAVVLNA
MGSDKIHHHHHHMKEVAIYIYMLAVKITGCLARIFPVKQKVVLLVSFPENSTAIIKQMNEMKVTPKTVVFYDPRVDVTGFNFDFIQLKPKKIKHFISLMFHLNTAKVVITDNYFVELAGLKERKNVTCIQIWHANGALKKFGWEDKAAQKRSARDKKRFQEVYRCFSKVLVGSDEMAAIFQRSFLLEDSHMLKLGIPRTDNFFNQQQLKENAERTNTKLHLSNKKKLLYAPTFRDEELHSTTLHLDIAKMKQALGNEYQLILKLHPSISNDLDEVVDDFVVYADKETPIETILPAVDILITDYSSIPFEFALLEKPMIFFTYDLEEYDKARGLSDGFLATIPGPFVHTTEELIQLIEQEAFDLEMVRAFAAKWNKYSDGHSSERFVSFLKEQLEK
MGSDKIHHHHHHMKFFNREKEIHKILSIIEGEPNLIYFIYGSINSGKTALINEIINNRLDKNKYIVFYFDLREIFISKYDDFIEVLFEEYEGDKSPIEVIKAIINDLPSLYGIPIPKNTLNEIFKKKTTKNVFRYITNVLMDIKREGKQPIIIIDELQKIGDMKINGFLIYELFNYFVSLTKHKHLCHVFCLSSDSLFIERVYNEAMLEDRVDYILVDDHRGGYAPSIGILPQIESGVAFGNPALEYSNRGFASMRGEYILVDDFDKETALKFMDFLAKENNMSLTNEDKELIYNYVGGKPVLIIKVIDKLRYENLNDILDFMLKDATQKLKYFLEDVKEEDEELYKKVVDALKLFKEDYEIEDIKIPKKIREFLIKRNILFLNPIEGILKPQSFLVWNAIKKVL
MGSDKIHHHHHHMKFIHTSDWHIGRQLHNQSLLDDQAFVLEQIIALADEHKVDAVIVAGDIYDRSIPPANAVALLDDVLNRLVHDLGLQVIMIAGNHDGHERLGFAAKQMAASGLHIIGPLSADIHPITLSSSSGDVVFYPLPYAEPATVRQVFECEAASHEAAMTLLLEQVRQHDSQGLPKVVISHCFLDGGSESESERPLSIGGADKISPTLFTEFDYVALGHLHGPQYKGAEHVRYSGSILKYSFSEQHQHKSVTLVELSAQTPIKIRLLPLTSIRDVRILEGELATLLVQGKTDIKREDYLMVRLLDKHAILDAMGKLRAVYPNVLHLERTGLMAGQQQVTLSRDHIKKGEMDMFRDFFSQVSGESLTQAQQAVMDELLTKLHNEERQA
MGSDKIHHHHHHMKFVQKIYYFLFKLVGFLPRRKELVMFESFSGKQYSCNPRAIFEYMEEHNPEYELLWSVNPKYVDLFEAHGVPYVKRFSVNWLFKMGLAKFWISNSRLPLELPKPKKTIYVQTWHGTPLKKLGVDIDEVHMPGQTTEQYKADFVKEAQKWDYLISPNAYSSTIFRRAFGFTGEMIESGYPRNDILFSADKELKIANIKMALNIPEDKKVILYAPTWRDNDFYEIGKYKFDLKIDIAKMQEKFGDEVVLLVRMHYLVAEHFDFTQYGDFVRDASKHEDIRDLYLVSDLLITDYSSVFFDYANLKRPMLFYTYDLAEYRDTLRGFYFDFEQNAPGPLVEMNDALMAEIEIMLENPPQIAESFLEQFCTWEDGHAAEKTVKKVFAEK
MGSDKIHHHHHHMKGMEEVVIDAKDMHYRELNEKIHEILRENPDIKKIVLKNVLGQRFIADGIQKKDLTIEIYGIPGGDLGMFMSGPTIIVHGNAEFAPGNTMDDGTIVIYGSSGDVTAHSMRGGKVFVRGDVGYRSGIHMKAYKDKVPVLVIGGRAKDFLGEYMAGGIIIVLNIDEKGNDLGKVKGRMIGTGIHGGAIYIRGEIDKDQLGVAADIKEFTEEDLEKIKPYIEEFCKWFNLPEDVKNKLLNSKWTKIAPISKRPFGKLYTPDLM
MGSDKIHHHHHHMKIAIITDGSVEMGMGHVYRTLSLANELRKFNVNEIIFFTKSDEDVIKKIEENGFKVIKCSDNNDILKNIKNIKPDVVIIDDLGIEEDFAKNIRELCKKLIFFDNPNPSSNKYADIVVNAIVGSELKNRKYFDEENKTLYFYGPKYLILRNEFYKVKKEMLSRSKNKETKNILIAFGGSDPSNLTCKVLEELLSKDRDFNINVVLGPKFQYEDELNNLLKRYSKSDKIKIYKNIDNMAELMKDNDLIITSPGMTMFEALFLGIPVVVLYQNELQRECYDDYLKKISKTHLNPLKEGYFIDAEHTDLHIGKGKFEIIEAITNIYNCKKIGEDSKIIIRQITDNDLELLMAWRSNPLIYKFFYIQKEPLKWEEHYSWWMSRENRVDWIILLRENNTIRKVGSVNVSQLNTDNPEIGILIGEFFLWGKHIGRHSVSLVLKWLKNIGYKKAHARILENNIRSIKLFESLGFKKTKKGRENEWIYEVNL
MGSDKIHHHHHHMKIAIVGGPTAVGKTDIMIEVCEEIGAEIISMDSRQIYRYMDIGTAKPTPEQRKRVLHHMIDIIDPDEYYNAFMYRKDSLRAMEDVLRRGKIPVYVGGTGLYADALVRGIFEGVPADENIRKELRELERREPGILRKMLEELDPEAATRIHPNDLKRTIRALEVYMKTGRRISELQKEAKGDDRFFIIVLTRERYELYERINKRVDKMIEMGLVDEVKRLLGMGYSKDLNSMKTIGYKEVIDYLEGKYDFDKMVHLIKRNTRHFARRQIIWFKRYKEAVWYNLTFEDVGEVKEKLKKLIVENFSV
MGSDKIHHHHHHMKIGFIGTGNMGTILIESFIESKAADPSNMTITNRTIEKALHIKNRYNSINVTESLEKLVSENEMIFICVKPLDIYPLLARALPYLRKDHILISITSPVQTEQLEQYVPCQVARVIPSITNRALAGVSLVTFGTSCGESAKAKINELMQHISHPLQIESDITRVASDIVSCGPAFMSYLIQRFIDAAVSETSVSKQDAILMCKEMLVGMGKLLETELYTLPALQEKVCVKGGVTGEGIKALESGVQDMFHRVFQNTHMKYEEDISAVKKQFHV
MGSDKIHHHHHHMKIGFVGAGVGTLHAALLLTKRYPEVEITIFEKESRAGGRLASVDFETGGRIDQGPTIVLMPGKLQEQLREAGLEGVELERIDPLYDLHFDDGTIVTKQADVVDQTIAIERQFGEGRGFQEFMQQKAKDYDVSVSKFLERTYSRKRDLLHPDMLAPLVKMHAMETAHDHLKRFFKSKHLRMAYSFPTFYIGGNPYTTPSIYGLIPYREQEEGVWYVKGGYFSLAERMYEALVERGVTFKFNQPVDRVLIQQGQTKGLVAAGQEYVYDTVVLNGEFPLMEYLVEGKQPKKYVPSGGTLLLYFKIDGKVDLPVHRFLMPSDLKPLMTSIFKKNELPENPAVYLFNPSKIDDALTASGTSVVYALVPSPRGFDQANYEAHGFIDQILDKIEQHLPGFQSQVTEMKIRTPQDAQDFGLYEGGSFGIAPTIRQSAALKTQAKPYADIERLYAVGASVHPCGGVPIVMMGATLLVNRMEQEMRWKNGYSDERISSM
MGSDKIHHHHHHMKIIHIVESSATGTLSMVCLIANRLAREGHDVHVIYSVRPDTPPALAAMFDTRVSLRHVQMKGAGLLRIAGRLRATLNEIGPDVVHLHSSFAGFLGRLSTLFALPKAAFFYSPHCISFMRRDISGVKRMAFIGLEWIACVRKCLYVACSESEGHAIRAWLRQPVVVVENAVSDTRSPQRSGDAERLADGPPCVVTVGGIRAQKNPELFARIAHGMRARGTRFVWIGDGDAAEKARLAEAGVEVTGWLPRDEVVRRLERADVYLSTSSWEGMPVSVIEAMLAGRPVIVSDCAGNVDVVRHLQTGLIYTTASDAIAWLERLAGDDALRRELARRASREARQRFGEERLFGELAPLYAASVAR
MGSDKIHHHHHHMKILITGATGFVGRRLVKSLSEHQLIILTRNINNAKNNLGSHHQYWQTLTDKSDLNDIDAVINLAGEPIVNKRWSNKQKKLICDSRWDITAALTQLISKSTTPPHTFISASAVGYYGRQDQNPVDETSGFHAEFSHDICQKWEDLALQAQSQQTRVCITRIGIVLGKNGGALAKMLPPFKLGLGGPIGSGEQGMSWIHVDDLISLMAYLLSNTDLQGIFNATAPQPVSNAKFAKALGNALNRPAKITTPPLALRLAMGEMSELLTTGQFVLPKRTLAAGFEFKYSDINSALDHITHSAN
MGSDKIHHHHHHMKIMSIELGKFNQLEVVKQVDFGMYLDGGEEGEILLPTRYVPEDCKLGDWLNVFLYLDNEERLIATTLTPLVQVGEFACLEVSWVNQFGAFLNWGLMKDLFVPFSEQKMKMQVGNKYVIHAHIDDESFRIVASAKVDRYLSKEKASYQPGEEVNILIWQKTDLGFKAIIENMYSGLLYDSEIFQTLHTGDVLKAYVKQVREDGKIDLILQKPGFEKIDDFSKTLHRYITEHGGWIGLTDKSPAEEIYDTFGVSKKTFKKAVGDLYKKRLILLHEDGIELVRP
MGSDKIHHHHHHMKIRLTQLQCSSSSVTVDINDWVIEPQQSWGVFSTEGDVGALLGQLLTQQIDAQTLTYSGDIIGVTPASVALVSLLEQQSLLEAILEQDDSESLGYTDPKTTVFGVVFNQCHDNDLTHQLLQQLDLTHLSLSPFAQLSTGEGRRVMLARAVATQVPFLVLDEPYAGLDVAHRQTLTEYLQQLSQTKQILVVVSREEDMPDWIEHVAMFSHGKLDTMMTKSQWDNHPVIAQLTAQAGQQSDDILALIRRHRHKPLFANPVFQLNNGRVAYSDKVIFSGVNWRIDNGVHWQVKGPNGCGKSTLLGLIFGDHPQCYSNDIDIFGNKRGSGESIWEIKKHIGMVSSALHLQYRVNCSALDVIVSGFYDSIGLYQKPTAQQISVATEWLAILHMGHLSKTAFRQLEYGQQRLLLIARAIVKQPTLLILDEPYQGLDYLGRRLIKNALELIAKEHLSQLLYVSHYQEDSLDSIQHYIEFVKDENQDGYRAVVSQG
MGSDKIHHHHHHMKISFPHMGYSYIAFKWLVNHLGHECIVPPEPSKKTLDLGVRYSPEFACIPFKILMGTYLEVAEKGAEIILTSGGMGPCRAGYYWVMHQYILDEIGKKVKVIAFEPPLCDLRDFWRKLHRLRVSGGLSVKAFIQVLKVAWEKIKAIDDMEMQSHSIRPYEEKRGDTTRALWKALEFVDEANGEDEVNEARQEGLKVLQGVRRDENRDPLKIGIIGEIYVVLEPSANHYLQIMLGEMGVYTDRSIYLSSYTRKNTIVNLEGDIFQVARPYLNEAPIGGHGVNSIGETILYARHGFDGVVQLAPFACIPEIVAKSIIPAVSRDFNIPVLTLFIDEQTGKAGVQTRLEAFVDLLEKRREHKRQRERWAI
